Two molecules from patent publication US6518401B2, “Tumor necrosis factor stimulated gene 6 (TSG-6) protein” (New York University, priority 1991, dated 2003) can be followed below.

Assay [1] deals with T1, IαI purified from human serum (Homo sapiens, UniProt P02760+P19823).
T1 construct: IαI is a complex protein in which the bikunin chain is linked to HC1 and HC2; supposed to determine the cleavage site for the C-terminal propeptide; from tissue; host or cells: human serum
In words: TSG-6/IαI complex formation with purified proteins (SDS-PAGE, Western blot). It is filed as binding. The following applies: preincubated 16 hrs. at 37° C. with chondroitinase, then mixed with the untreated partner protein. Here is the method: Purified recombinant TSG-6 protein (lane 1) and IαI purified from human serum (lane 2) were mixed and incubated for 2 min. (lane 3), 5 min. (lane 4), 10 min. (lane 5), 15 min. (lane 6), 30 min. (lane 7), or for 60 min. (lane 8) at 37° C. or for 60 min. at 0° C. (lane 9). The reaction mixtures were then separated by SDS-PAGE and subjected to Western blot analysis with rabbit anti-TSG-6 serum.
Four micrograms of purified IαI and 3 μg of purified TSG-6 protein were incubated separately for 16 hrs. at 37° C. in the absence or presence of 30 milliunits of chondroitin sulfate ABC lyase. […]
Analysis of TSG-6 Binding to Carrier Protein. To determine the presence of TSG-6 binding protein, samples to be analyzed were mixed with an equal volume of TSG-6-containing serum-free supernatants of TN-5 B insect cells infected with recombinant Baculovirus and incubated at 37° C. for 30-60 min. (Purified TSG-6 protein was used in some experiments, as indicated.) Thereafter, the mixtures were analyzed for the presence of the 120-kDa complex by Western blotting with purified rabbit antibody to TSG-6 as described earlier (Wisniewski et al, J. Immunol. 151:6593-6601 (1993)). […]
Rapid Complex Formation between Recombinant TSG-6 Protein and IαI Purified from Human Serum at 37° C. The 120kDa TSG-6/IαI complex formed readily when purified TSG-6 protein and purified IαI were incubated together at 37° C. but not at 0° C. […]
(A western blot detects proteins with antibodies after separation by electrophoresis.)

For assay [2], the system named is TSG-1 (IL-8) mRNA. In words: Northern blot analysis of TSG mRNA levels in FS-4 cells. The following applies: growth arrested FS-4 cells, 2 h; TNF 20 ng/ml, CHX 10 ug/ml, IFN-β 500 U/ml, IFN-γ 100 U/ml, IL-1-α 1 ng/ml, EGF 25 ng/ml, TGF-β 2 ng/ml, poly(I).poly(C) 50 ug/ml, TPA 100 ng/ml, A23187 1 uM, forskolin 10 uM, dBcAMP 100 uM, IBMX 100 uM. It is filed as cell-based, human. Here is the method: (§1) The human diploid FS-4 foreskin fibroblast cell line (Vilcek, J. et al, Proc. Natl. Acad. Sci. USA 70:3909-3913 (1973)) was used at passage level 15 in all experiments. FS-4 cells were grown in Eagle minimal essential medium (E-MEM) supplemented with 6 mM HEPES, 3 mM Tricine, 50 μg/ml gentamicin, and 5% heat inactivated (56° C., 30 min) fetal bovine serum (FBS; GIBCO Laboratories, Grand Island, N.Y.). For experiments, 4×10^6 cells were seeded in 175 cm^2 Falcon flasks, incubated at 37° C., and allowed to grow to confluence over 6 days. The confluent monolayers were washed once with phosphate buffered saline and replenished with E-MEM containing […] FBS. The cultures were incubated in this medium for another 72 h at 37° C. to let the cells become quiescent and then treated with the appropriate agents, as specified herein.
(§2) Cytoplasmic RNA was fractionated on a 1% agarose gel containing formaldehyde and blotted onto Zeta-probe blotting membranes (Bio-Rad Laboratories, Richmond, Calif.). Cytoplasmic RNA was loaded at 10 μg/lane. Prehybridization and hybridization of Northern blots were performed as described (Lin, J.-X. et al, supra). Filters were probed with 32P-labeled cDNA insert from recombinant M13 clones and/or with 32P-labeled internal reference pHe7 insert. Northern blots were quantified with a laser densitometer.
(§3) The increase in mRNA levels ranged from about 3-fold (TSG-21) to over 100-fold (TSG-6 and TSG-8).
(§4) Table 3 provides a summary of a large number of experiments in which levels of mRNAs corresponding to the 8 distinct TSG cDNAs were determined in FS-4 cells exposed to various agents by Northern blot analysis. Three of the mRNAs (corresponding to TSG-8, TSG-12 and TSG-14) were inducible by the protein synthesis inhibitor, cycloheximide (CHX). […] In contrast, induction of the remaining 3 mRNAs by TNF was inhibited or reduced in the presence of CHX. Five of the mRNAs were inducible by IFN-β, but only two of these responded to […]. Simultaneous treatment with IFN-β reduced inducibility of TSG-1 (=IL-8) mRNA by TNF, but increased the inducibility of TSG-6 and TSG-37 mRNAs. All mRNAs were inducible by IL-1 and by the doublestranded RNA poly(I)-poly(C) or the phorbol ester 12-O-tetradecanoyl phorbol 13-acetate (TPA), but the efficiency of induction by these agents varied. Epidermal growth factor (EGF) was moderately efficient in increasing TSG-21 (=collagenase) and TSG-27 (=stromelysin) mRNA levels, and weakly stimulated several other mRNAs. PDGF and transforming growth factor-β (TGF-β) were only weakly effective, as were dibutyryl cyclic AMP (dBcAMP) and the phosphodiesterase inhibitor, isobutyl methyl xanthine (IBMX).

For assay [3], the system named is TSG-12 mRNA. The assay is described as above. The format is cell-based, human. The following applies: growth arrested FS-4 cells, 2 h; TNF 20 ng/ml, CHX 10 ug/ml, IFN-β 500 U/ml, IFN-γ 100 U/ml, IL-1-α 1 ng/ml, EGF 25 ng/ml, TGF-β 2 ng/ml, poly(I).poly(C) 50 ug/ml, TPA 100 ng/ml, A23187 1 uM, forskolin 10 uM, dBcAMP 100 uM, IBMX 100 uM. Here is the method:
as §1, §2, §3, §4

Assay [4] concerns TSG-14 mRNA. Described as above. The format is cell-based, human. The following applies: growth arrested FS-4 cells, 2 h; TNF 20 ng/ml, CHX 10 ug/ml, IFN-β 500 U/ml, IFN-γ 100 U/ml, IL-1-α 1 ng/ml, EGF 25 ng/ml, TGF-β 2 ng/ml, poly(I).poly(C) 50 ug/ml, TPA 100 ng/ml, A23187 1 uM, forskolin 10 uM, dBcAMP 100 uM, IBMX 100 uM. As to the method:
as §1, §2, §3, §4

The subject of assay [5] is TSG-21 (Collagenase) mRNA. Described as above. It is filed as cell-based, human. As to conditions: growth arrested FS-4 cells, 16 h of treatment; TNF 20 ng/ml, CHX 10 ug/ml, IFN-β 500 U/ml, IFN-γ 100 U/ml, IL-1-α 1 ng/ml, EGF 25 ng/ml, TGF-β 2 ng/ml, poly(I).poly(C) 50 ug/ml, TPA 100 ng/ml, forskolin 10 uM, IBMX 100 uM. As to the method:
as §1, §2, §3, §4

Assay [6] concerns TSG-27 (Stromelysin) mRNA. The assay is described as above. The format is cell-based, human. The following applies: growth arrested FS-4 cells, 16 h of treatment; TNF 20 ng/ml, CHX 10 ug/ml, IFN-β 500 U/ml, IFN-γ 100 U/ml, IL-1-α 1 ng/ml, EGF 25 ng/ml, TGF-β 2 ng/ml, poly(I).poly(C) 50 ug/ml, TPA 100 ng/ml, forskolin 10 uM, IBMX 100 uM. Here is the method: as §1, §2, §3, §4
Assay [7] relates to TSG-37 (MT-II) mRNA. Described as above. It is filed as cell-based, human. As to conditions: growth arrested FS-4 cells, 2 h; TNF 20 ng/ml, CHX 10 ug/ml, IFN-β 500 U/ml, IFN-γ 100 U/ml, IL-1-α 1 ng/ml, EGF 25 ng/ml, TGF-β 2 ng/ml, poly(I).poly(C) 50 ug/ml, TPA 100 ng/ml, A23187 1 uM, forskolin 10 uM, dBcAMP 100 uM, IBMX 100 uM. Here is the method:
as §1, §2, §3, §4

Assay [8] relates to TSG-6 mRNA. The description is as above. It is filed as cell-based, human. As to conditions: growth arrested FS-4 cells, 2 h; TNF 20 ng/ml, CHX 10 ug/ml, IFN-β 500 U/ml, IFN-γ 100 U/ml, IL-1-α 1 ng/ml, EGF 25 ng/ml, TGF-β 2 ng/ml, poly(I).poly(C) 50 ug/ml, TPA 100 ng/ml, A23187 1 uM, forskolin 10 uM, dBcAMP 100 uM, IBMX 100 uM. Here is the method:
as §1, §2, §3, §4

For assay [9], the system named is TSG-8 (MCAF) mRNA. The description is as above. It is filed as cell-based, human. As to conditions: growth arrested FS-4 cells, 2 h; TNF 20 ng/ml, CHX 10 ug/ml, IFN-β 500 U/ml, IFN-γ 100 U/ml, IL-1-α 1 ng/ml, EGF 25 ng/ml, TGF-β 2 ng/ml, poly(I).poly(C) 50 ug/ml, TPA 100 ng/ml, A23187 1 uM, forskolin 10 uM, dBcAMP 100 uM, IBMX 100 uM. Here is the method:
as §1, §2, §3, §4

T1 sequence (P98066 18-277 partner, one chain of several): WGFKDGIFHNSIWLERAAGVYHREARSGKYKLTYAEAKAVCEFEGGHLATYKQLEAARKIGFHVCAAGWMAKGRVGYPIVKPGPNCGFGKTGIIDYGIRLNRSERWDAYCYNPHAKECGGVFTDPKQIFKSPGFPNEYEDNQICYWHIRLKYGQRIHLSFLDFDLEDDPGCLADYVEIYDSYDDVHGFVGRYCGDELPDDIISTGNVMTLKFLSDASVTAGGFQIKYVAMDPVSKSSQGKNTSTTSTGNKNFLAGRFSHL

B1: IαI: inter-α-inhibitor purified from human serum; the TSG-6 binding protein (protein)
chain 1: AVLPQEEEGSGGGQLVTEVTKKEDSCQLGYSAGPCMGMTSRYFYNGTSMACETFQYGGCMGNGNNFVTEKECLQTCRTVAACNLPIVRGPCRAFIQLWAFDAVKGKCVLFPYGGCQGNGNKFYSEKECREYCGVPGDGDEELLRFSN
chain 2: SLPGESEEMMEEVDQVTLYSYKVQSTITSRMATTMIQSKVVNNSPQPQNVVFDVQIPKGAFISNFSMTVDGKTFRSSIKEKTVGRALYAQARAKGKTAGLVRSSALDMENFRTEVNVLPGAKVQFELHYQEVKWRKLGSYEHRIYLQPGRLAKHLEVDVWVIEPQGLRFLHVPDTFEGHFDGVPVISKGQQKAHVSFKPTVAQQRICPNCRETAVDGELVVLYDVKREEKAGELEVFNGYFVHFFAPDNLDPIPKNILFVIDVSGSMWGVKMKQTVEAMKTILDDLRAEDHFSVIDFNQNIRTWRNDLISATKTQVADAKRYIEKIQPSGGTNINEALLRAIFILNEANNLGLLDPNSVSLIILVSDGDPTVGELKLSKIQKNVKENIQDNISLFSLGMGFDVDYDFLKRLSNENHGIAQRIYGNQDTSSQLKKFYNQVSTPLLRNVQFNYPHTSVTDVTQNNFHNYFGGSEIVVAGKFDPAKLDQIESVITATSANTQLVLETLAQMDDLQDFLSKDKHADPDFTRKLWAYLTINQLLAERSLAPTAAAKRRITRSILQMSLDHHIVTPLTSLVIENEAGDERMLADAPPQDPSCCSGALYYGSKVVPDSTPSWANPSPTPVISMLAQGSQVLESTPPPHVMRVEND
chain 3: SKSSEKRQAVDTAVDGVFIRSLKVNCKVTSRFAHYVVTSQVVNTANEAREVAFDLEIPKTAFISDFAVTADGNAFIGDIKDKVTAWKQYRKAAISGENAGLVRASGRTMEQFTIHLTVNPQSKVTFQLTYEEVLKRNHMQYEIVIKVKPKQLVHHFEIDVDIFEPQGISKLDAQASFLPKELAAQTIKKSFSGKKGHVLFRPTVSQQQSCPTCSTSLLNGHFKVTYDVSRDKICDLLVANNHFAHFFAPQNLTNMNKNVVFVIDISGSMRGQKVKQTKEALLKILGDMQPGDYFDLVLFGTRVQSWKGSLVQASEANLQAAQDFVRGFSLDEATNLNGGLLRGIEILNQVQESLPELSNHASILIMLTDGDPTEGVTDRSQILKNVRNAIRGRFPLYNLGFGHNVDFNFLEVMSMENNGRAQRIYEDHDATQQLQGFYSQVAKPLLVDVDLQYPQDAVLALTQNHHKQYYEGSEIVVAGRIADNKQSSFKADVQAHGEGQEFSITCLVDEEEMKKLLRERGHMLENHVERLWAYLTIQELLAKRMKVDREERANLSSQALQMSLDYGFVTPLTSMSIRGMADQDGLKPTIDKPSEDSPPLEMLGPRRTFVLSALQPSPTHSSSNTQRLPDRVTGVDTD
For the molecule B1, the “ability to form the TSG-6/IαI complex after pretreatment of the protein with chondroitin sulfate ABC lyase” value in [1] is “no longer able to form a complex”.

B2: IL-1: E. coli-derived recombinant human IL-1α (protein, UniProt P01583 113-271, looked up)
Interleukin-1 alpha: SAPFSFLSNVKYNFMRIIKYEFILNDALNQSIIRANDQYLTAAALHNLDEAVKFDMGAYKSSKDDAKITVILRISKTQLYVTAQDEDQPVLLKEMPEIPKTITGSETNLLFFWETHGTKNYFTSVAHPNLFIATKQDYWVCLAGGPPSITDFQILENQA
modifications: E. coli recombinant
notes: E. coli-derived recombinant human IL-1α
Consider B2, for which the “Relative Increase in mRNA Level TSG-1 (IL-8)” value in assay [2] is recorded as “+”. Moreover, the “Relative Increase in mRNA Level TSG-12” value in assay [3] is listed as “++++”. In addition, the “Relative Increase in mRNA Level TSG-14” value in assay [4] was “++++”. Also, in assay [5], the “Relative Increase in mRNA Level TSG-21 (Collagenase)” value is “++”. Further, the “Relative Increase in mRNA Level TSG-27 (Stromelysin)” value in assay [6] was “++”. Also, the “Relative Increase in mRNA Level TSG-37 (MT-II)” value in assay [7] is reported as “++”. Further, in [8], the “Relative Increase in mRNA Level TSG-6” value is “+”. For the same molecule, in [9], the “Relative Increase in mRNA Level TSG-8 (MCAF)” value was “++”.
